The results in this text go back to PMC10998906 (NPJ Vaccines, 2024).

This test deals with HA (NL03, A/Netherlands/213/2003(H3N2)) (Influenza A virus …, strain). The test can be described thus: negative-stain EM. As to conditions: both partners purified.

B1: CR9114 Fab (Fab, V domains shown)
VH: QVQLVQSGAEVKKPGSSVKVSCKSSGGTSNNYAISWVRQAPGQGLDWMGGISPIFGSTAYAQKFQGRVTISADIFSNTAYMELNSLTSEDTAVYFCARHGNYYYYSGMDVWGQGTTVTVSS
VL: QSALTQPPAVSGTPGQRVTISCSGSDSNIGRRSVNWYQQFPGTAPKLLIYSNDQRPSVVPDRFSGSKSGTSASLAISGLQSEDEAEYYCAAWDDSLKGAVFGGGTQLTVL
For B1, the “stoichiometry N” value came out at 1 Fab per particle.
